Assay results reported in the DeepSol protein solubility set.

Assay: soluble on expression in E. coli; label from the status in PepcDB or PDB records

Soluble on expression in E. coli, not soluble:
MGSDKIHHHHHHMYEHQTYEAILVRMLARVPETIDKREGSLIYDALAPGAAELAQAYAELVVNNNLSFADTASGEFLTRRAAEFGIKRKVATKAWRRGGFLDSNNALLNIPLGSRYSIGGLNYTAIEQISTGAYVLECETAGTAGNQQFGDLLPIAYVNSLARAELTEVLVPGEDEETDEALLSRYYETVNEPAFGGNMADYRQKVNAINGVGGTKVFPTWAGGGTVKCTIIASDWAKPSPELVNEVQSTMDPEENQGMGLGQAPIGHAVTIAGVDKVTVDVETTLTLAPGVTPGQVQSDVEAILDAYLLEQRKTWAAQTQIIIRMAQIDARMLTVQGVEDVTGTKLNGTEANFLLDEEEIPILGTVIINE, MGSDKIHHHHHHMYKIGIDVGGTNTDAVILDENQQLIHSVKMPTSEDIETGITESLHRVLSETGIDRSKVTHAMLGTTQCTNAIVERKKLAKVGVLRLGYPATASVLPYTAWPEDMVGFLSGKYKLTGGGYEYDGQVLSEINEAEIRETLASWKGEVESVAVVGVFSSLKNDQELAVQKIIEEELGADIPVSISSSVGSVGLIERENATILNAALFKVIAATSDGFEKALEQEGIEHAEIYLCQNDGTLMSLNYARQFPILTIACGPTNSIRGASYLAGLKDAMVLDVGGTTSDIGVLTDGFPRESSLAVDVGGVRTNFRMPDIISIGLGGGSIVREKDGDITIGPDSVGYRISEEALVFGGKTMTTTDIAVRLGMAEIGNPELVAHIPTDFAEKAYKKIADMTEDAIDKMKTSSGSVSLVLVGGGSMIIPDEISGVAQIFRDKNGPVANAIGASISQISGQYEQIYIYSQIEREEALQDAEQKAREQATLAGAVTDSIEVVEVEEIPLAYHPGNATRLRVKVVGDLV, MGSDKIHHHHHHMYKWGWTMTSSVAQLLSTPVEEVAGKEVPVLDKDFSLAEILKAVEKAKIDRAFLTEGNSIRGVLTFRDILDKIATVRTKQAYIGGLHGSSFMNEPVKYVEVGREVSHALETMANGMFTSVPVVGAGGVVEGGITRFELARLVKDLEISQDTSVRDVMRTFLVSVNLQTRILHVRQLLYEYDISVIPVMDEGRFVGVVGLDELMAIIKSFYNLARGEPKRHTPLKYVIVADAIRMRPPVVTPDASLAEAAEKMLEKRYRAVVVVDSEKPVGFTSGLELANFLLTKKSS, MGSDKIHHHHHHMYLKGDFHIHTNASDGKYTPEKVLELAKTAGINILAITDHDTTSSVKKAIAVGNELGIKVLPGIELSTLKNGESIHILGYFRDISYENKDFQNFLTEMQNYRVWRAKKIVENLDTYFNIKLDYASILKEASNVIARPHIARAILAKGYNYTYEYIFNNILNKESPAYIPNKKVSVEEGIKLLKAANAVVVLAHPVLIKKTPIEDFLKLDFDGIEAIYPMNSESDTERFLSLAKIYNKLVTAGSDFHTDDSSDTKHGRIGEIYLDENNIDILLSK, MGSDKIHHHHHHMYPNLTSEQALLILQSARNPDKAYDLFAQAAEVRDKVFGKRLWWSSGSGGIFPCLVKPRCSYCTYYTEKLFPTDVLLTGLELIESLGIQQFHISGGTDLDEGYDEQLLELVQAIKTRSGLKLEINLGPSFRQETVLELKKLGIDSVTSSLECNTPAIFARAKPGDSLERRRELLHHCEEADMPSRSMMLLGLGETDQERIEHLFYLQQFKKLYQLRLSRFMPFPGTLYKDRSRCSPWDTALITAMARLILPNLEISLAAGNSNDDIPLWYLAGGGSQLLGVSITRKEPPATPDVDVYAIGEGAYVVDKRQQVARVLEGMNLEVTCEMPDYRALQSQF, MGSDKIHHHHHHMYQKGVSTREIGHFIEKILGHSYSASTISQVTDVVTEDITQWQQRPLKKRYSVLYLDGTYLKLRREDVANEVVYLVVGVTEEGYREILGFYVGGQESANGWRNILLDLYSRGLEEVLLGVFDGLAGLEEAMKAVYPKADVQRCVVHKVRNALHAVRKKDQPAVAQDFKPIYQANTYEEAKNRFKEFKENWQKRYPKVVATWEKDLDVLLTFLSYPSTIRPMIYTTNIIERTMKEIKKRTKTMNSLPNEKAAEKIVYLQAIDYNERWATRRLRGFGEAYEALQEMFKQRYSGP, MGSDKIHHHHHHMYREYQPCGLLAPYVDKIWEFKGSPEYGMRINVLPDGCTDLIFALGGITQPVGSEGRIMPSCRSFFVGPMKRYSELVAYTETVHMVGIRFHPCGLFRFMDLPVQELGGQRISSADLGIKLFDDSFTERLYELPDLRSRIQCIETVLVRSMHKHDVVDKQIVFAVNHIHLYHGQREIRLLAEDTCLCQRHLERRFKLFTGFTPKEYSRIVKFRHAIDLLKNTTEANNLLSVAVNAGYYDVSHFLKEVKTLSGGTAESFLSPTLPQEGLLTYIEK, MGSDKIHHHHHHMYVDEIHVEKCGPLSVGVYGGNQESDAYERGDAVLAWWDPELQFEFVMIFDTHHKTKNIDYIIEAISERKEKLKELFSYPIHLAFHHTHMYLLALFTDELFIEKCDQDDEELACLICLRKGEFLYWLSVGDCFAYLFHSEKTKNGKGRLNKRKNYEYIGRKNIFAANTPCFTSGVRGLEKGMNHIVMATDGILECDKRRFDDDQSLIEILHDGSCLQIEPVLTNVLQWKGRDCATIIGWSIDTENKRCAN, MGSDKIHHHHHHMYYEKAVQKTINWIESHLHEQISNEDIVNVSSFSKFHFHRIFQKEVGMSVASYIRLRRLANAAAALLYTDHRIIDIALYYQFESQEAFTRTFKKMYHMPPGAYRTFMKRFTSKKEESYMEKKMKGWVLSGSHPFQFEMGIDRENVHQGKASGYLKSTMVQDIGEFATMMQQFKADRYLGKRLRLSSFIKTKGVQHFASLWMRVDSAADDVLQFDNMSNRPITGTTNWNHYAIVLDVPENSAVISFGVQLSGPGQVWMDHVVFEEVDESVPSTNLEMPGELLDEPVNLSFEEELQK, MGSDKIHHHHHHNKNTLPDSNGTLVPVGSWYLGLSVGVGALKNPLRGQDNIPLYVLPEFRYYGERFSVENLDVSFTLYDAPAYSLELVGQQNMDGLLFPGDNRRLMASFTGMIPIRSRDVVETAVELPPLYPEHKSMSYMAGVAARYFGWFDAQVLALTDVSKVHHGYEINLSLGKQYNWKNINFEAQFGATYKSSKLTEYYYNGEYQELFYQVYNYRADSAINPYIQLSAAYDLGNNYFVSGNVRNIWLDDTIHHSPIFEDTHLLTYFIGIKKLF, MGSDKIHHHHHHNSDVPENTHLVSKEVQAAFNAKYPQAKDVEWELKGDYAVADFYWDGGEHSAWFNPLSAAWYMTETDVRYENLPEPVLAAHKAGKYADWRVDDVDKLTREGMETLYVIEVEKGESELDLFYSSTGILVKTVVDTGHEEDYDDYLPQPDANGIIAIVKQKYPNATIVEIEREKGLQEVTILDENKEKEVYFNERNEWMGTSWDVQVANLPEAVKKSVMEKYSDYVIDDADYVVTPDNEWYILDLENKQIDKELKVKVDKDGVWL, MGSDKIHHHHHHQAIAPAPADPAAALMPSPWSGSSGELGYASAHGNSTTDSLNGRIRLRYTDGDWIHSLDATALRSSSEYTNTNDDGSVTRERQTTAERYTGSAGSALQLGEHRQLTATGRYEHDDFATYDRLATFGIGYGTRLIDADRFYLDAQIGPGIRRAHNSDDDRNETGLIGRGLFDLKYTVTDNTDLINTLLVESGEYNTYAQNDFGVQVSMNSHFALKAAWQMRHNSDVSEGDKKTDTLTTVNLVYTFK, MGSDKIHHHHHHQTQVIAHRGFWKTEGSAQNSIAALLKADSIGCYGSEFDVWLAADDQLVVNHDPTFKGKRMENSPSTALTAIKLDNGESLPTLAKYLKAAQPLHTRLILELKAHSTPLRETKAIEKIVALVKDMGLEERMEYITFSLHATKEFIRLAPEGTPVYYLDGNLSPKELKELGCAGPDYHYTVFRKHPEWIQECHDLGMKVNAWTVNKTDDMKWLIDRKVDFITTNEPVQLKNLLKK, MGSDKIHHHHHHRFMRIMMTSVLNNTKTQKVKFWLLKNYLSPKFKETIPKLAEFYKFEFELVEYKWPKWLHKQTEKQRVMWGYKILFLDVLFPLNVDKIIFVDADQVVRADLQELMDFNLNGAPYGYVPFCESRTEMDGFRFWKSGYWKNHLMGRKYHISALYVVDLKAFREFSAGDRLRGRYDSLSADPNSLSNLDQDLPNNMLHEVPIKSLPQEWLWCETWCDDGSKEKAKTIDLCNNPLTKEPKLNSAKRIIKEWTEYDSEISKVLNSADINTPSPSVDRDEL
